Laboratory results from the DeepSol protein solubility set.

Experiment: soluble on expression in E. coli; label from the status in PepcDB or PDB records

Sequence | soluble on expression in E. coli
MGSDKIHHHHHHMSKTIQAITNQIWSMANELRGNMDASEYKNYILAFMFYRYLSEHQERFLVEDEIISPAPGETVQDAYVREAVGNDLVEHLENTASHLGYAIEPEDTWARLVAKIDNSEIVASDYQTIFDHFNANVELNRDAMEDFRGVFNDINLGDSRLGNSTVARAKSLNSIVKLIDSIEYKNDEGKDILGEIYEYLIGQFAASAGKKGGEFYTPHQVSKILAKIVTLGLEKSDTSFSVYDPTMGSGSLLLTVRNELPQGQHIKFYGQEMNTTTYNLARMNLMMHQVSYSNMILNNADTLESDWPDGVDELGIDQPRSFDAVVANPPYSAKWDNRESKLKDPRFMEYGKLAPASKADFAFILHSLYHLNNTGTMAIVLPHGVLFRGAAEGHIRKLIIEKNYLDAVIGLPANLFYGTGIPTTILVFKKNRQTKDVFFIDASKEFEKGKNQNHLSDDMVEKIVETYHNRQSVDKYAHLASIEEIVENDYNLNIPRYVDTFEEEEEIDLGQVTQQLEQDRLEIRALEDKIRQQLKTLGVDF | not soluble
LALMSAAKLPKSFVWGYATAAYQIEGSPDKDGREPSIWDTFCKAPGKIADGSSGDVATDSYNRWREDVQLLKSYGVKAYRFSLSWSRIIPKGGRSDPVNGAGIKHYRTLIEELVKEGITPFVTLYHWDLPQALDDRYGGWLNKEEAIQDFTNYAKLCFESFGDLVQNWITFNEPWVISVMGYGNGIFAPGHVSNTEPWIVSHHIILAHAHAVKLYRDEFKEKQGGQIGITLDSHWLIPYDDTDASKEATLRAMEFKLGRFANPIYKGEYPPRIKKILGDRLPEFTPEEIELVKGSSDFFGLNTYTTHLVQDGGSDELAGFVKTGHTRADGTQLGTQSDMGWLQTYGPGFRWLLNYLWKAYDKPVYVTENGFPVKGENDLPVEQAVDDTDRQAYYRDYTEALLQAVTEDGADVRGYFGWSLLDNFEWAEGYKVRFGVTHVDYETQKRTPKKSAEFLSRWFKEHIEE | soluble
MAHHHHHHMSDAAPGPAPAPVTAAVDAPPLPAPTKVKPPRKKPPRAEEANPRLLAPANGVAAQQQKQRDKEFATHKAHILTNLQTNACDLSPKGSLDAKCLPVMGVLNTHKDYVTTSSCSGRIALFHSIKHSEACGADDGTATPKPRMKRGENAALGWVFVKHGMLRPMEMAQVVGFLCGAPTTPEDVALDSAQMEKHAAHMASVSCSAHCHSAAPGSLLAEMYDGEVEGALVGARVSGDEVAALPVPTRGTVSLKMEPFVMHVQCRTMEAAKLLLSAVVSDSGFRNSGVVPPGKKIMCGIRSAAGLGLEVPVVVDGVNHVASQRAYVWALLGLANEKMEANEKKIKLLERSVAARVLPA | soluble
MPNNISKSAIIKEGVIIGENVTIEDNVYIDYGCIIRDNVHIKKGSFIGARSILGEYLVDFYNDRINKKHPLIIGENALIRTENVIYGDTIIGDNFQTGHKVTIRENTKIGNNVKIGTLSDIQHHVYIGNYVNIHSNVFVGEKSIIKDFVWLFPHVVLTNDPTPPSNELLGVTIELFAVIAARSVVLPGIHINEDALVGAGAVVTKDVPKETVVVGNPAREICSIRKIKNKITGEQVYPWRYTFKRGMPWEETDYDTWIKNISIENLEHHHHHH | soluble
MMLKQAAKKALGLTSRQSTPWSVGILRTYHENVIDHYDNPRNVGSFDKNDPNVGTGLVGAPACGDVMKLQIKVDEKTGQIVDARFKTFGCGSAIASSSVATEWVKGKAMEDVLTIKNTEIAKHLSLPPVKLHCSMLAEDAIKAAVKDYKEKRVKTNGAAAAGETTQA | not soluble
MEMTNAQRLILSNQYKMMTMLDPTNAERYRRLQTIIERGYGLQMRELDREFGELTEETCRTIIDIMEMYHALHVSWTNLKDTQAIDERRVTFLGFDAATEARYLGYVRFMVNIEGRYTHFDAGTHGFNAQTPMWEKYQRMLNVWHACPRQYHLSANEINQIINA | not soluble
SWSGLLPPGLNESDAESNSEDEATLENSGLNLQEDKEDESIRKTEIIDFSTDEPKTETESNVNAYEECPSGIPIDMWNKFQELHKKHSEQKSTTSRFRGKRRKRSRKDKLKNEKELHSEPSSNETQWKELTQYFGVNDRFDPPVKRKKVEKSGLEKRIDQAVEEWNIEKAEELSNQLATRELGVKIAKAVACHNFVKAKKEVENSQAARKKKKLAWGFEAKKRWETKSNMGYM | soluble
RHQNYGVPWTPGETRQVWDVEARIEFNANGNEVKASLAAPHTQSGYTLIGESASSSGYGVSYINSDSGRRAEWSIRQAKGPQTIYYKAQFLVDPQAKVEPLPPAGDITPPTLSAPQQAAASALIDQAMSRSADNVTFARELIKTLNDPDSQNSALLLNDFDRTDALHKILLSAGVQSKIVGVIELEDGRRRQTIQPMVQVWSGKDWVLFSPNSEQKAVKPNLLVWDESNVSLLDLVGGKNSQVHFSMIKQEVTPQQATNNKVEADGLLNLSIHSLPLEEQAMFK | soluble
MHDAATSMPPQAPSTWADYLAGYRWRGQGEGCSAATVHRLEAARRPTLFVKQEVLSAHAELPAEIARLRWLHGAGIDCPQVLNETQSDGRQWLLMSAMPGDTLSALAQRDELEPERLVRLVAAALRRLHDLDPAACPFDHRLERRLDTVRQRVEAGLVDEADFDDDHRGRSATELYRLLLDRRPAVEDLVVAHGDACLPNLLAEGRRFSGFIDCGRLGVADRHQDLALAARDIEAELGAAWAEAFLVEYGGDIDGERLAYFRLLDEFF | soluble
TTKKRVFHFGKGKSEGNKTMKELLGGKGANLAEMASIGLSVPPGFTVSTEACQQYQDAGCALPAGLWAEIVDGLQWVEEYMGATLGDPQRPLLLSVRSGAAVSMPGMMDTVLNLGLNDEVAAGLAAKSGERFAYDSFRRFLDMFGNVVMDIPRSLFEEKLEHMKESKGLKNDTDLTASDLKELVGQYKEVYLSAKGEPFPSDPKKQLELAVLAVFNSWESPRAKKYRSINQITGLRGTAVNVQCMVFGNMGNTSGTGVLFTRNPNTGEKKLYGEFLVNAQGEDVVAGIRTPEDLDAMKNLMPQAYDELVENCNILESHYKEMQDIEFTVQENRLWMLQCRTGKRTGKSAVKIAVDMVNEGLVEPRSAIKMVEPGHLDQLLHPQFENPSAYKDQVIATGLPASPGAAVGQVVFTAEDAEAWHSQGKAAILVRAETSPEDVGGMHAAVGILTERGGMTSHAAVVARGWGKCCVSGCSGIRVNDAEKLVTIGGHVLREGEWLSLNGSTGEVILGKQPLSPPALSGDLGTFMAWVDDVRKLKVLANADTPDDALTARNNGAQGIGLCRTEHMFFASDERIKAVRQMIMAPTLELRQQALDRLLPYQRSDFEGIFRAMDGLPVTIRLLDPPLHEFLPEGNIEDIVSELCAETGANQEDALARIEKLSEVNPMLGFRGCRLGISYPELTEMQARAIFEAAIAMTNQGVQVFPEIMVPLVGTPQELGHQVTLIRQVAEKVFANVGKTIGYKVGTMIEIPRAALVADEIAEQAEFFSFGTNDLTQMTFGYSRDDVGKFIPVYLAQGILQHDPFEVLDQRGVGELVKFATERGRKARPNLKVGICGEHGGEPSSVAFFAKAGLDYVSCSPFRVPIARLAAAQVLV | soluble
MERMSDSADKPIDNDAEGVWSPDIEQSFQEALAIYPPCGRRKIILSDEGKMYGRNELIARYIKLRTGKTRTRKQVSSHIQVLARRKSRDFHSKLKDQTAKDKALQHMAAMSSAQIVSATAIHNKLGLPGIPRPTFPGGPGFWPGMIQTGQPGSSQDVKPFVQQAYPIQPAVTAPIPGFEPTSAPAPSVPAWQGRSIGTTKLRLVEFSAFLEQQRDPDSYNKHLFVHIGHANHSYSDPLLESVDIRQIYDKFPEKKGGLKELFGKGPQNAFFLVKFWADLNCNIQDDAGAFYGVSSQYESSENMTVTCSTKVCSFGKQVVEKVETEYARFENGRFVYRINRSPMCEYMINFIHKLKHLPEKYMMNSVLENFTILLVVTNRDTQETLLCMACVFEVSNSEHGAQHHIYRLVKD | soluble
MGDAPSPEEKLHLITRNLQEVLGEEKLKEILKERELKIYWGTATTGKPHVAYFVPMSKIADFLKAGCEVTILFADLHAYLDNMKAPWELLELRVSYYENVIKAMLESIGVPLEKLKFIKGTDYQLSKEYTLDVYRLSSVVTQHDSKKAGAEVVKQVEHPLLSGLLYPGLQALDEEYLKVDAQFGGIDQRKIFTFAEKYLPALGYSKRVHLMNPMVPGLTGSKMSSSEEESKIDLLDRKEDVKKKLKKAFCEPGNVENNGVLSFIKHVLFPLKSEFVILRDEKWGGNKTYTAYVDLEKDFAAEVVHPGDLKNSVEVALNKLLDPIREKFNTPALKKLASAAYPDPSKQKPMAKGPAKNSEPEEVILEHHHHHH | soluble
MSLPSERELGKELEVSRLTVRKAIQELEQKGILYKIQGKGTFVNDRKKAGEHGNKIGVISHLYKGVFMEILEGIEEGLESESYEYLLRNSQNDYKKEENIIQAMKEEGVSGFIISPVEDQKDSNVIFNLKAEGYPIVLIDRKLNYCETDCVLSDNIDGGFKATEYLIKLGHSRIAFLTYEFRKTSSVRDRIKGYRYALKLNQLELDERLLFSYNKDLSREEKNKILYNFIKENKPTAIIGVHNDVALDVVKMCRANNISIPEDISIICFDNTDIVRHLEVPLTTLVQDARKIGYDAAKLIVKKINSQEETGIMNQIYHPVKLIERNSCKSILQKNEGHHHHHH | soluble
MAHHHHHHMYSFSLASNRKRAIPNASGLAPPAAAHVIRAPSELKPHQRLPQPLNEAADDAADDDVMQVSNARFGWHPAHAHAPTSSLYSVRPPAEQLVHVHNLNAYAGLRDAADWSVEVQREREQKKRRALAQHEAVKLEEQRHRDAHEEQTKKEMQQRRLERQQERAELREADAMADFQERNTQFLQNQLWLMQLGSYVKQTDAQHKAHVREELHKSSSSRNHLDVDHASTTCWTGTKARGHHASAPSTEIDLRQAAEATEEAYVRLSLAYRNEAQRSRAAAAILHPGELTGKGRSRLQAIRPAGAFASPTSPSAPSQAATAVSTPSHSPAASPAPAAVTEAAAKVSAPFHTAPPMFTHTSTENMGQHANAIPYTYIPEYFDAPSAAATTGKVPAPHRAGESPEQQETGAVMPLPLSPVPVSRDVTGALQARYYPWALYSAATVRKSMLPPLPPPREASLPVRRWGAAELRDSMFGHCILEDGTIQDQCERKKVCAAYLSYTTLPRDNATATSNAAVEPQEPLHFGKRMDIWL | not soluble
MKGMSKMPQFNLRWPGGGPQFNLRWPREVLDLVRKVAEENGRSVNSEIYQRVMESFKKEGRIGGTGGSGGGREVLDLVRKVAEENGRSVNSEIYQRVMESFKKEGRIGAHHHHHHKNQHE | soluble
MAHHHHHHMIFVERQTDTENAAYLLAKMLGIHIRNIGMIHGGMQQRQRDYIMNGFKHSQTRILVATDVASRGIDFPDVTCVVNFIAPKSIDRYCHRIGRTGRAGRTGDSFTFIGHSDGCLAKDLVGYLKKCGMEVPQKLLDIAGKYVQYEEQRHLRRSWSGRSGRGFKRQKQDSPAPYQSSSW | not soluble
MSLTGTDFHVGIVGLGSMGMGAARSCLRAGLSTWGADLNPQACANLLAEGACGAAASAREFAGVVDALVILVVNAAQVRQVLFGEDGVAHLMKPGSAVMVSSTISSADAQEIAAALTALNLNMLDAPVSGGAVKAAQGEMTVMASGSEAAFTRLKPVLDAVASNVYRISDTPGAGSTVKIIHQLLAGVHIAAAAEAMALAARAGIPLDVMYDVVTHAAGNSWMFENRMQHVVDGDYTPRSAVDIFVKDLGLVADTAKALRFPLPLASTALNMFTSASNAGYGKEDDSAVIKIFSGITLPGVTPEEGHHHHHH | soluble
MNSTFIVNFVGKATPATIKQLAAVTHENGGKWLISKVNFIEDSVAAVIKIELPADNASTVKQAFQTYPSLLVEITDADPHVHKSDAVYKVRLDANDRAGIVNEITHLLDGQGISILDMDCQRVFIAGGGGISSSLFTANVAMRLPVNIEIDDVINELEALSEDTRVTLEA | not soluble
MFCTFFEKHHRKWDILLEKSTGVMEAMKVTSEEKEQLSTAIDRMNEGLDAFIQLYNESEIDEPLIQLDDDTAELMKQARDMYGQEKLNEKLNTIIKQILSISVSEEGEKE | soluble
